B1: TPR t1 (parent)
chain: GACCAAUCUGCCCUCAGAGCUCGAGAACAUCUUCGGAUGCAGAGGAGGCAGGCUUCGGUGGCGCGAUAGCGCCAACGUCCUCAACCUCCAAUGCAUCCCACCACAUGAUGAUGCCUGAAGAGCCUUGGUUUUUUG

Variants of: B1
Assay: polymerase ribozyme fitness, log enrichment relative to wild type (log ratio); higher = more active; in vitro selection for triplet polymerase activity
In short: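 Streptavidin-bead capture of gel-excised extended constructs, followed by RT-PCR, closed a single triplicate in vitro selection round. That round began by annealing PCR-built, transcribed mutant libraries of each subunit of a heterodimeric triplet polymerase ribozyme with a biotinylated primer, the partner subunit and triplets, then incubating them frozen at −7 °C. After Illumina sequencing of inputs and outputs, genotypes needed ≥10 input reads and ≥1 read per output. Fitness is the base-2 logarithm of genotype enrichment over wild-type enrichment, using inverse-variance-weighted replicate averages.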

Variant	polymerase ribozyme fitness (log ratio)
A37G U55G C72A U129A	-1.52
C15A A37U C76U	-2.8
U9C U55G G69A	-1.8
G45U A66G	-2.32
G48A U78A C98U	-1.75
C8U C94U	0.9
C56U U67A	-5.79
G39U C56A	-1.06
U7A A29G C64U C88A C104A	-1.32
U7G G60C	-0.367
A68G U131A	-3.5
G71C G113C	-2.72
G48C A90U U112A	-0.162
C3U G44U C82A	-1.68
G47A G71U	-0.472
A111C U112A C123G	-0.191
C76A U81A C89U	-1.33
U87A C88G	-1.1
A37C C49A C104U U125G	-1.1
C53G C101A A121U U126G	-0.329
C22U C114G C124A U125G	-5.84
G61U C73U G93U	-2.38
A2U U116A	-5.18
G63A U96A	-1.81

Variant	polymerase ribozyme fitness (log ratio)
A46U C56G U78G C85U	-1.84
C20U U92A	-4.08
C20A U106C	-2.55
C73U U92A G93A	-4.03
C11U C13G U30G U55A C70U A108U	-3.69
G10A C12G C40A C115U A119G G120C U131A	-0.621
C34A	-2.52
C3U C49A U92A G113A	-2.63
G36U G63A	-1.69
C13A A46U U106C	-2.81
C62A C123G	0.748
U9C C56G C62U	0.103
G36A C53U U126A U129G U133G	-4.06
A6U A91U A121C C124A	-0.453
C70G A74U	-4.98
A90U A95U G113C G122U	-1.98
C8A C49U A74C U78C C85A A91U C94U	-3.74
G39A G47U G48A C70U C101A	-5.46
U9G C11A G63C	-0.534
C15A C56A G117U	0.157
G10C G61A U96A	-0.958
C12U G60U A90G C99U	-2.17
C11G C12A U38G G71A U106C G113A	-3.24
G65A C88G	-5.43

Variant	polymerase ribozyme fitness (log ratio)
G19U U21A C49A C82A G113C	-4.41
C62U A74G C88A	-3.21
C73A A74U C85U C94U C115U	-3.24
U7G C8G U106A C115A G127A	2.21
C53G U125C	-2.29
C62A C70U C86A	-4.26
C11U A75G	-0.146
C20U G63U A118G U132A	-2.9
C11G G113U G128U	-3.42
U33C C72U	-3.04
G71A G93A	-1.39
A46G C97U C114G	-4.73
C12A G61U U109G	-7.2
C49A G127U	-1.02
A18U A83U C101A	-3.63
C72G G120U	0.278
A50C U55G G58C G61C U81A C124A	0.946
A43C G120U	-2.7
A5G G17A	-2.47
C97U U116G G135U	-3.49
G42A C85A C94U	-3.73
C11A C28U C53U C89A	-5.79
C49A C53U G61A C101A	-0.913
U32C G93U	-0.79

Variant	polymerase ribozyme fitness (log ratio)
U38G C104A	-1.93
U9A G36U G63U	-1.27
C3U C49G	-1.16
A29G G52A G71U C73U	-4.52
G47U A66G A118G U130G	-4.13
C12A G36A G61A U92A C123U	-3.77
C13U G19C C40U C72U C98A G110U	-8.2
C85G C86U U92A	-5.3
G47C G93A C124A G127U G135U	-2.23
C13U U109A	-5.03
C8G A18C C89A	-0.827
C40G U92A U109A U116C	-5.03
U33C G120U	-4.63
C13U C80U	-0.427
A24G C123G	-0.893
C22U C86G A100C A121U G135U	-4.77
A2U A16U G45A U87C A121C	-2.88
C4U C20A A111G	-4.75
C20A C124G	-0.976
C89A U125A	-1.17
C76U C102U	-2.21
A29G G61A C124A	0.686
C64G C115A G128A U130C	-5.49
C53G A91U	-1.68

Variant	polymerase ribozyme fitness (log ratio)
C22A C64U	-4.37
A5U G110C	-3.71
G44C U106C G135C	-1.28
C22U C82A A84C G93C U112C	-4.92
C12U C98A	-4.29
A18U G122U	-2.38
G61C C72A C101A G120U C123A	-0.675
C76G G122A	-1.36
C98U G110C U131A	-5.64
C8U C13G A26C A74C	-6.04
C40U A46U A100U	-3.37
C114U C124G	-0.85
U14C G127A U129A	-3.26
G57A G58A A83U	-0.302
G69U C97U	0.163
C56A C70A	-2.72
C8A G45U	-0.263
C3A U87A C94U U106G C115U G120C	-5.04
G71U C76G	-2.91
A6G U9C C13G C89U A90U C94U A105U A121G	-2.84
G44U C89U A111U	-4.49
C64U C97A	-5.08
C4G C13G C49A G60A	-4.79
U33G C34G G52U	-6.73

Variant	polymerase ribozyme fitness (log ratio)
C64U U78C C104U	0.13
C28U G61U U92C	-2.53
G23A G61A	-4.6
C40U G60U	-0.21
C22G C104A C123A	-3.01
U7G C79U C124A	2.08
C13G G51U A84C G127U	-6.59
C62U A105U	-2.19
G48A C56A G113U	-4.64
G63A G110A	-2.72
U9C C70U C102G	-6.28
A5C U9A C13U A74C G110C C123A	-5.77
A5G G48U G61A U81A C82A G127C	-1.97
G44A U78A G93U	-1.85
G52U G120U	-0.714
C8U C11G C13U C20A G69C C82A A83C C98U U112G	-4.19
C56G C79A	-1.17
A46U A84U A95U C102A	-4.22
G63U C73A C97U	-4.28
C15U A100C	-2.86
U7G C53G	-0.551
C62G C102U G120U	-5.14
C40A U129C	-1.74
C13U C73G G117A C124A	0.844

Variant	polymerase ribozyme fitness (log ratio)
G39A G61C A118G G122A	-3.03
C72U C94U G127U	-1.75
C49G G93U	-1.49
A16G G71U	-0.398
A46U C94G	-2.36
C53U C101A	-0.961
C12A C88U	-0.873
A50G C70U C72G	-3.42
A75U C79G C88U U130G	-2.82
A108G G120A C124G U131G	-0.578
C56G C79A A83U A90C C114A	-7.42
C3U G63A C76U G110A C124U	-5.42
G17A C56A G93U	-4.99
G10U C20A	-3.25
A43C G47U U112A G135A	-1.87
C12U G44C C102U	-2.5
A46G A74U G77A G113U	-3.68
A29U G69C U81G U87G	-3.43
G113U G127U	-4.46
C56A U112C	-0.107
C13A G17C C72U C88U A121G	-2.21
A16U G117U C123A	-4.24
C20U G63C A84C A105U	-4.52
